In US9234036B2, “Modulation of activity of proneurotrophins” (H. Lundbeck A/S, priority 2006, dated 2016):
“Also recorded” adds a separate entry of the source. Where no end group is shown, it is not given here.

T1: GST-pro-dom-NGF (Homo sapiens, UniProt P01138, A35V)
T1 construct: previously described GST-NGF-pro-domain fusion protein (Nykjaer et al., Nature 2004)
T1 sequence (P01138 19-121 A35V): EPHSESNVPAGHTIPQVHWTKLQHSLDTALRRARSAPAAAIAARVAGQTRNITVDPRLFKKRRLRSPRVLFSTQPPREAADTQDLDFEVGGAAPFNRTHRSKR

T2: pro-dom-BDNF (Homo sapiens, UniProt P23560)
T2 construct: pro-dom-BDNF (residues Ala^1-Arg^110); made in house; host or cells: E. coli BL21/DE3
T2 sequence (P23560 19-128 limits assumed): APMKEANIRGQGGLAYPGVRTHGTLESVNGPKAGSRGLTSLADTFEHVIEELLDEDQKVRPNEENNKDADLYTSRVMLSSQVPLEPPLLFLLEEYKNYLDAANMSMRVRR

T3: pro-dom-NGF (Homo sapiens, UniProt P01138, A35V)
T3 construct: pro-dom-NGF (residues Glu^1-Arg^102); made in house; host or cells: E. coli BL21/DE3
T3 sequence (P01138 19-121 A35V): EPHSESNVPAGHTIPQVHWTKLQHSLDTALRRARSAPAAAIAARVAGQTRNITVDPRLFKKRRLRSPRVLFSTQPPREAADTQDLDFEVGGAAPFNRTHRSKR

T4: proNGF binding to immobilized Sortilin (Homo sapiens, UniProt Q99523)
T4 construct: 51 fmol/mm^2 purified Sortilin extracellular domain; made in house; host or cells: Sortilin: stably transfected CHO cells; proNGF: E. coli
T4 sequence (Q99523 78-755 limits assumed): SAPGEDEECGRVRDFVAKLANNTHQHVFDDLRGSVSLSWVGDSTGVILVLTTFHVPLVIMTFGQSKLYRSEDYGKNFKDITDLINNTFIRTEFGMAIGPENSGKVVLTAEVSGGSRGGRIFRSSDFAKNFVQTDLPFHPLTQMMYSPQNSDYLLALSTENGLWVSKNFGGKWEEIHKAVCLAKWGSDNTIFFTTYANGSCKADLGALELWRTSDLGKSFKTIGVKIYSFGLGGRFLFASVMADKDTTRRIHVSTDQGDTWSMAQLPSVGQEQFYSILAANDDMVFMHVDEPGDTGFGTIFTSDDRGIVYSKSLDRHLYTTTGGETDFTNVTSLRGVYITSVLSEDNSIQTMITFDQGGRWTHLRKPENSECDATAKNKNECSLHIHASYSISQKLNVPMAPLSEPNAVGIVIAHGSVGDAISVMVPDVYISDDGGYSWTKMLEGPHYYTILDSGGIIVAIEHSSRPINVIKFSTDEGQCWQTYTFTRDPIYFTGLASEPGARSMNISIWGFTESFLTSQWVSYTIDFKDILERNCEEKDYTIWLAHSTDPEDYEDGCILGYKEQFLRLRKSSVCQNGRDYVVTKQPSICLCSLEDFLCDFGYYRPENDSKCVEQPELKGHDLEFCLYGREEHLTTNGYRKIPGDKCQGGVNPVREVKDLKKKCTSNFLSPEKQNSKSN


Columns and labels:
GST-pro-dom-NGF = biological target: T1, GST-pro-dom-NGF; test: SPR binding of GST-pro-dom-NGF to immobilized sortilin site-directed mutants
Procedure: Site-directed mutagenesis was performed for all important residues within the peptide sequence as identified by the substitution analysis in the SPOT method, using the pCepPU expression vector for sortilin as template. The thereby generated mutant constructs were used together with HEK293 cells to produce single residue mutants of the his-tagged sortilin luminal domain, to obtain the proteins R163A, F165A, R166A, F170A, K172A, and F174A numbered according to pro-Sortilin as specified in the sequence overview. As a control protein, the mutant R160A located N-terminally to the recognition sequence, was produced in order to have a protein with unaltered affinity for the NGF-prodomain.
After purification by standard Ni^2+-NTA chromatography, each sortilin mutant was immobilized to a similar surface density on Biacore CM5 chips. Binding was tested using concentration series of the previously described GST-NGF-pro-domain fusion protein (Nykjaer et al., Nature 2004), which is able to render a higher response using the SPR system at low concentration. Thus concentration series of 10, 20, 30, 40, and 50 nM GST-prodomain of NGF was applied to each chip surface, and data was fitted to a 1:1 binding model using the standard BIAevaluation software.
This model is further supported by the previous data in the substitution analysis, where a stronger effect upon mutation was observed when using peptides containing only one of the binding motives, as compared to mutants spanning both motives. Accordingly, it was decided to “remove” an entire motif before substitution within the second motif and to be able to observe how that would influence binding of the ligand. A sortilin variant was produced containing quadruple substitutions (R163A, F165A, R166A, and […] F170A) in a similar procedure using HEK293 cells as applied for single residue mutants.
To determine ligand binding capacity, quatro protein was coupled in parallel to the wild-type sortilin on a new Biacore chip, and binding of GST-pro-NGF was measured in a manner similar to the analysis of single residue mutants (FIG. 21).

pro-dom-BDNF = biological target: T2, pro-dom-BDNF; test: SPOT analysis of pro-dom-BDNF binding to cellulose-bound sortilin peptides; settings: HRP-S-protein detection where stated
Excerpt: (§1) Peptide libraries were generated for all members of the Vps10p-domain receptor gene family or specific peptide variations in terms of substitution or length of identified Sortilin binding peptides. A total of 2181 peptides was used for representation of the Sortilin gene family, corresponding to 273 peptides for Sortilin (accession code: CAA66904), 734 peptides for SorLA (accession code: NP_003096), 389 peptides for SorCS1 (accession code: NP_001013049), 382 peptides for sorCS2 (accession code: Q96PQ0), and 403 peptides for SorCS3 (accession code: CAI64579), with a 13 amino acid overlap between 16-mers.
(§2) A cellulose support is prepared as a N-modified cellulose-amino-hydroxylpropyl ether membrane, and all rounds of synthesis starts with SPOT definition by 9-fluorenyl-methoxycarbonyl-β-alanine-pentafluoophenyl ester that creates an alanine linker between peptide and membrane. Then followed an automated linear synthesis of stepwise addition of the different amino acids protected at their amino terminal by 9-fluorenyl-methoxycarbonyl and appropriate side chain protection for the growing peptide chain. The pattern of deprotection, activation, and coupling continued until 16-mer peptides were produced, resulting in an equally distributed array of covalently anchored peptides to the cellulose support at their C-terminal and an N-terminal free end.
(§3) The membrane-bound libraries were incubated with a combined S-peptide and poly-histidine-tagged pro-domains (10 ug/mL) in blocking buffer over night at 4 C, followed by a second incubation with 1 ug/mL of HRP-conjugated S-protein from Novagen (cat. no. 69047-3) also in blocking buffer but for 3 h at room temperature. Subsequently, the membrane was washed three times for 10 min with TBS before quantitative characterization of bound ligand was carried out using the UptiLight chemoluminescence substrate from Uptima (cat. no. UP99619A) and the Lumilmager instrument from Roche Diagnostics, providing the SPOT signal intensities in Boehringer Light Units (BLUs). […]

pro-dom-NGF = biological target: T3, pro-dom-NGF; test: SPOT analysis of pro-dom-NGF binding to cellulose-bound sortilin peptides; settings: HRP-S-protein detection where stated
Excerpt: as §1, §2, §3

[1] = biological target: T4, proNGF binding to immobilized Sortilin; test: Inhibition of proNGF binding to immobilized Sortilin (Biacore); settings: then coinjection, 51 fmol/mm^2 Sortilin (FIG. 6)
[2] = GST-pro-dom-NGF at 10-50 nM, 1:1 binding model

Molecule	Kd (GST-pro-dom-NGF; [2])	ka (GST-pro-dom-NGF; [2])	kd (GST-pro-dom-NGF; [2])	also measured
F165A: single residue mutant of his-tagged sortilin luminal domain; SEQ ID NO 52 (RGGRIARSSDFAKNF; not fully specified)	3.86 nM	1.10 × 10^5	4.22 × 10^−4	–
F170A: single residue mutant of his-tagged sortilin luminal domain; SEQ ID NO 54 (RGGRIFRSSDAAKNF; not fully specified)	5.59 nM	1.30 × 10^5	5.91 × 10^−4	–
F174A: single residue mutant of his-tagged sortilin luminal domain; SEQ ID NO 56 (RGGRIFRSSDFAKNA; not fully specified)	4.27 nM	2.35 × 10^5	1.03 × 10^−3	–
FAKNFVQTD (listed as Homo Sapiens)	–	–	–	pro-dom-BDNF binding in SPOT analysis (pro-dom-BDNF): efficient binding; pro-dom-NGF binding in SPOT analysis (pro-dom-NGF): efficient binding
K172A: single residue mutant of his-tagged sortilin luminal domain; SEQ ID NO 55 (RGGRIFRSSDFAANF; not fully specified)	3.91 nM	1.01 × 10^5	3.46 × 10^−4	–
R160A: single residue mutant of his-tagged sortilin luminal domain, control; SEQ ID NO 50 (AGGRIFRSSDFAKNF; not fully specified)	1.89 nM	1.47 × 10^5	2.27 × 10^−4	–
R163A: single residue mutant of his-tagged sortilin luminal domain; SEQ ID NO 51 (RGGAIFRSSDFAKNF; not fully specified)	2.7 nM	1.85 × 10^5	4.21 × 10^−4	–
R166A: single residue mutant of his-tagged sortilin luminal domain; SEQ ID NO 53 (RGGRIFASSDFAKNF; not fully specified)	4.38 nM	6.48 × 10^4	2.85 × 10^−4	–
RIFR: 4-mer sortilin peptide, SEQ ID NO:25 residues 7-10 (listed as Homo Sapiens)	–	–	–	pro-dom-BDNF binding in SPOT analysis (pro-dom-BDNF): binds very strongly; pro-dom-NGF binding in SPOT analysis (pro-dom-NGF): binds very strongly
RIFRSSDF (listed as Homo Sapiens)	–	–	–	pro-dom-BDNF binding in SPOT analysis (pro-dom-BDNF): efficient binding; pro-dom-NGF binding in SPOT analysis (pro-dom-NGF): efficient binding
Sortilin propeptide: propeptide of the Sortilin receptor (QDRLDAPPPPAAPLPRWSGPIGVSWGLRAAAAGGAFPRGGRWRR)	–	–	–	inhibition of binding of 200 nM proNGF to immobilized Sortilin ([1]; 5 μM inhibitor prebound): ~65%
quatro: sortilin variant with quadruple substitutions R163A, F165A, R166A, F170A; SEQ ID NO 57 (RGGAIAASSDAAKNF; not fully specified)	–	–	–	binding of GST-pro-dom-NGF compared with sortilin wt (GST-pro-dom-NGF; 50 nM GST-pro-dom-NGF, FIG. 22): severely affected; also recorded: strongly reduced affinity; KD (GST-pro-dom-NGF; [2]): no binding
RAP: receptor-associated protein, SEQ ID NO 12 (protein, listed as Homo Sapiens) MAPRRVRSFLRGLPALLLLLLFLGPWPAASHGGKYSREKNQPKPSPKRESGEEFRMEKLNQLWEKAQRLHLPPVRLAELHADLKIQERDELAWKKLKLDGLDEDGEKEARLIRNLNVILAKYGLDGKKDARQVTSNSLSGTQEDGLDDPRLEKLWHKAKTSGKFSGEELDKLWREFLHHKEKVHEYNVLLETLSRTEEIHENVISPSDLSDIKGSVLHSRHTELKEKLRSINQGLDRLRRVSHQGYSTEAEFEEPRVIDLWDLAQSANLTDKELEAFREELKHFEAKIEKHNHYQKQLEIAHEKLRHAESVGDGERVSRSREKHALLEGRTKELGYTVKKHLQDLSGRISRARHNEL	–	–	–	inhibition of binding of 200 nM proNGF to immobilized Sortilin ([1]; 10 μM inhibitor prebound): ~65%
